In paper PMC6319348, “Phase I/II clinical trial of the targeted chemotherapeutic drug, folate-tubulysin, in dogs with naturally-occurring invasive urothelial carcinoma” (Oncotarget, 2018):
“And” between values parts separate entries of the source, which are not always exact repeats. Identical values can stand only once. “Also recorded” adds a separate entry of the source. Like-named read-outs stand apart in the source and are kept apart here. Marks after values point to notes of the source that are not given here.

How the values were obtained:
[1] = Plasma pharmacokinetic analysis; format: in vivo, dog
Procedure: Plasma pharmacokinetic analysis was conducted in six dogs sequentially enrolled in the trial. Blood was collected at 0, 2, 10, and 30 minutes, and at 1, 2, 8, and 24 hours after treatment.
(§1) Tubes were centrifuged, and plasma collected and stored at –80° C.
For the analysis of EC0531 concentrations in plasma, the EC0531 was extracted from 100 µL of dog plasma by 96-well solid phase extraction (SPE). Internal standard was added to all samples prior to extraction using a Strata X-A SPE plate (Phenomenex, Torrance, CA, USA). The eluate was collected, evaporated, and finally reconstituted with 85/15 water/acetonitrile with 40 mM mannitol. The extracted samples were injected into a UPLC/MS/MS system (Waters, Milford, MA, USA) using a BEH C18 reverse phase column (Waters) implementing a mobile phase gradient. Incurred sample concentrations were then back-calculated against a calibration curve prepared in blank dog plasma.
(§2) Internal standard was added to all samples prior to extraction using a 200 µL SLE+ plate (Biotage, Charlotte, NC, USA). The eluate was collected, evaporated, and reconstituted with acetone prior to sealing and heating the collection plate for 1 hour. After incubation, the extracts were again evaporated and finally reconstituted prior to injection. The extracted samples were injected into a UPLC/MS/MS system (Waters) using a BEH shield RP18 reverse phase column (Waters) and eluted under isocratic conditions. […] Incurred sample concentrations were then back-calculated against a calibration curve prepared in blank dog plasma. […] Samples were homogenized in buffer with a bead beater, or hand held homogenizer. Aliquots (100 µL) of each sample were spiked with 400 µL internal standards in acetone. The extracts were sealed and incubated at 55° C for 1 hour. The extracts were then evaporated to remove acetone, and reconstituted. Finally, reconstituted samples were analyzed by injection into a UPLC-MS/MS system (Waters) to evaluate concentrations of EC0531 and metabolites against a prepared calibration curve.

[2] = system: U.S. National Cancer Institute 60 tumor cell lines; set-up: method as in PMID 16489930; conditions: percent of cell lines tested; cited from earlier work
[3] = system: canine iUC; conditions: randomized trial in dogs with iUC; cited from earlier work
[4] = system: tumor xenograft mouse model; conditions: free drug; before effective anti-tumor activity could be observed; cited from earlier work
[5] = system: naturally-occurring invasive urothelial carcinoma (iUC); experiment: Phase I/II antitumor activity (tumor response, progression free interval); format: in vivo, dog
Procedure: In order to estimate antitumor activity, the cohort of dogs receiving the MTD was expanded with the goal to assess antitumor effects in a minimum of 24 dogs treated at or above the MTD [37]. The effects of EC0531 on the tumor were assessed by cystosonography using a specific standardized protocol and physical exam including rectal exam at four-week intervals. Complete cancer staging (thoracic radiography with left lateral, right lateral, and ventrodorsal projections; abdominal radiography with right lateral and ventrodorsal projections; and complete abdominal ultrasonography) was performed at eight-week intervals. The response in the primary tumor was determined by comparing volume measurements by cystosonography as follows: complete remission (CR, no cancer detected), partial remission (PR, ≥50% decrease in tumor volume and no new tumor lesions), stable disease (SD, <50% change in tumor volume and no new tumor lesions), and progressive disease (PD, ≥50% increase in tumor volume or the development of new tumor lesions). Metastatic lesion response was assessed by RECIST criteria. Progression free interval (PFI) was defined as the time from start of EC0531 treatment until PD of local or metastatic lesion(s). Permission to perform a necropsy was requested at the time of the dog’s death (death from cancer or other causes). Tissues collected at necropsy were examined histologically and immunohistochemically to detect FR expression in primary and metastatic lesions.
Stepwise Cox regression analysis was performed to assess the relationship between predictor variables and […] (PFI). The following variables were assessed: age, weight, sex, peripheral blood neutrophil-to-lymphocyte ratio at the start of treatment, tumor location (bladder vs urethra/prostate vs both), treatment beginning at < MTD or ≥ MTD, pretreatment with chemotherapy, concurrent use of COXi, IHC/ICC score, and best tumor response (PD vs SD vs PR/CR). Variables with p-values < 0.25 in univariate models were then included in multivariate modeling. Variable(s) with a p-value < 0.05 in the final multi-variable Cox regression model were considered to have a significant effect on PFI.

[6] = Drug concentration in iUC tissue samples; format: in vivo, dog; conditions: three dogs, approximately three hours after treatment, 0.28 mg/kg EC0531
Procedure: as §1, §2

[7] = Phase I dose escalation: safety, tolerability, MTD (VCOG-CTCAE); format: in vivo, dog; conditions: dog, in vivo; intravenous, every two weeks; dogs with iUC; read-out: maximum tolerated dose (MTD)
Procedure: (§3) […] […] The 10 pet dogs in the pilot study included six neutered male dogs and four spayed female dogs of a variety of breeds and weighing between 5 and 46 kg.
(§4) Dogs in dosage cohorts were enrolled using a 3+3 trial design. Inter-patient and intra-patient dose escalation was permitted. Drug tolerability was assessed by owner questionnaire, physical exam, CBC the day of treatment and seven days following treatment, and biochemistry panel at four-week intervals. Toxicity was graded using VCOG-CTCAE criteria. The EC0531 dose was increased by 0.02 mg/kg in each subsequent dose cohort if no dose limiting toxicity (DLT) was recorded. DLT was defined as an adverse event (AE) > grade 2. When a grade 3 AE occurred, the cohort was expanded to at least six dogs including six new dogs, i.e. six dogs that had not received prior EC0531 at lower doses. If more than one grade 3 AE or any grade 4 or 5 AE occurred, then six dogs were enrolled at the previous cohort. The MTD was defined as the highest dose tolerated by six dogs with no more than one grade 3 AE and no grade 4–5 AE. Intra-patient dose escalation was permitted if no AEs had occurred after two doses of the drug had been administered.
(§5) In individual dogs, the EC0531 dose was reduced by 10% if grade 2 toxicity was noted, and by 20% if grade 3 or higher toxicity was noted. Treatment was delayed by one week if the neutrophil count was <3,000/mm^3 or platelet count <100,000/mm^3 the day treatment was due.

[8] = system: dogs with naturally-occurring invasive urothelial carcinoma (iUC); experiment: as above; format: in vivo, dog
Procedure: as §3, §4, §5

[9] = Avg of six dogs, EC0347 in plasma after single EC0531 0.28 mg/kg IV
[10] = dog, plasma, iv, 0.28 mg/kg, Avg of six dogs, EC0531 in plasma, single 0.28 mg/kg IV
[11] = dogs that had received and failed prior chemotherapy
[12] = non-responders, dogs with PD after the initial two treatments

CCCC(=O)OCN(C(=O)[C@@H](NC(=O)[C@H]1CCCCN1C)C(C)CC)[C@H](C[C@@H](OC(C)=O)c1nc(C(=O)N[C@@H](Cc2ccc(O)cc2)C[C@H](C)C(=O)NN)cs1)C(C)C (stereo partly shown) [EC0347]
Cmax, EC0347 (free drug) [1, 9]: 2.3 ng/mL
Tmax, EC0347 (free drug) [1, 9]: 12.0 min
Tmax, EC0347 (free drug) ([1]; individual dogs #1-6 (c0), EC0347 in plasma after single EC0531 0.28 mg/kg IV): 10.0 min

CC[C@H](C)[C@H](NC(=O)[C@H]1CCCCN1C)C(=O)N(COC(=O)CC(C)C)[C@H](C[C@@H](OC(C)=O)c1nc(C(=O)N[C@@H](Cc2ccc(O)cc2)C[C@H](C)C(=O)O)cs1)C(C)C [tubulysin A]
cell lines with growth inhibition [2]: 33%

CC[C@]1(O)C[C@@H]2CN(CCc3c([nH]c4ccccc34)[C@@](C(=O)OC)(c3cc4c(cc3OC)N(C)[C@H]3[C@@](O)(C(=O)OC)[C@H](OC(C)=O)[C@]5(CC)C=CCN6CC[C@]43[C@@H]65)C2)C1 [vinblastine]
PR, percent of dogs [3]: 22%

CC[C@]1(O)C[C@@H]2CN(CCc3c([nH]c4ccccc34)[C@@](C(=O)OC)(c3cc4c(cc3OC)N(C)[C@H]3[C@@](O)(C(=O)NN)[C@H](O)[C@]5(CC)C=CCN6CC[C@]43[C@@H]65)C2)C1 [DAVLBH, desacetylvinblastine monohydrazide]
toxicity in tumor xenograft mouse model [4]: unacceptable toxicity

CCCC(=O)OCN(C(=O)[C@@H](NC(=O)[C@H]1CCCCN1C)[C@@H](C)CC)[C@H](C[C@@H](OC(C)=O)c1nc(C(=O)N[C@@H](Cc2ccc(O)cc2)C[C@H](C)C(=O)NNC(=O)OCCSSC[C@H](NC(=O)[C@H](CCC(=O)NC[C@H](O)[C@@H](O)[C@H](O)[C@H](O)CO)NC(=O)CC[C@H](NC(=O)[C@H](CCC(=O)NC[C@H](O)[C@@H](O)[C@H](O)[C@H](O)CO)NC(=O)CC[C@H](NC(=O)[C@H](CCC(=O)NC[C@H](O)[C@@H](O)[C@H](O)[C@H](O)CO)NC(=O)CC[C@H](NC(=O)c2ccc(NCc3cnc4nc(N)[nH]c(=O)c4n3)cc2)C(=O)O)C(=O)O)C(=O)O)C(=O)O)cs1)C(C)C [EC0531]
Tmax ([1]; Norwegian Elkhound, dog, individual dogs #1-6 (c0), EC0531 in plasma, single 0.28 mg/kg IV): 2 min
AUC(0-inf) [1, 10]: 1900 ng·h/mL
AUC(0-t) [1, 10]: 1890 ng·h/mL
C0 [1, 10]: 3990 ng/mL
Cmax [1, 10]: 3490 ng/mL
clearance [1, 10]: 2.78 mL/min/kg
Vd ([1]; dog, plasma, iv, 0.28 mg/kg, Avg of six dogs, EC0531 in plasma, single 0.28 mg/kg IV, read-out: Vz): 0.102 L/kg
half-life ([1]; dog, plasma, iv, 0.28 mg/kg, Avg of six dogs, EC0531 in plasma, single 0.28 mg/kg IV, read-out: t1/2): 24.7 min
half-life ([1]; dog, plasma, iv, 0.28 mg/kg, dogs, 0.28 mg/kg IV, biphasic pharmacokinetic behavior, read-out: elimination half-life): ~25 min
half-life ([1]; dog, plasma, iv, 0.28 mg/kg, individual dogs #1-6 (c0), EC0531 in plasma, single 0.28 mg/kg IV, read-out: t1/2): 22 min
Tmax ([1]; dog, Avg of six dogs, EC0531 in plasma, single 0.28 mg/kg IV): 2 min
peak plasma drug concentration relative to concentrations required to kill FR-expressing tumor cells in vitro ([1]; dogs receiving 0.28 mg/kg, in vitro concentrations from ref 14): approximately 700 times
PR, percent of dogs ([5]; 28 dogs): 11%
clinical benefit rate ([5]; 28 dogs): 71%
PFI range ([5]; all dogs (n = 28)): 24 to 649 days
median PFI ([5]; all dogs (n = 28)): 103 days
hazard ratio for PFI ([5]; dogs achieving PR vs dogs with PD): 0.003 (95% CI 0–0.066)
HR for earlier PD [5, 11]: 4.6 (95% CI 1.2–16.7)
PFI range [5, 11]: 34–162
median PFI [5, 11]: 95 days
PFI range ([5]; dogs with SD): 56 to 296 days
median PFI ([5]; dogs with SD): 200 days
hazard ratio for PFI ([5]; dogs with SD vs dogs with PD): 0.013 (95% CI 0.001–0.124)
PFI range [5, 12]: 24–47
median PFI [5, 12]: 34 days
clinical benefit (PR + SD), number of dogs ([5]; of 28 dogs): 20 dogs
partial remission (PR), number of dogs ([5]; of 28 dogs): three
stable disease (SD), number of dogs ([5]; of 28 dogs): 17 dogs
PFI or time of censoring ([5]; the three individual dogs achieving PR): 162 days and 251 days and 649 days
tumor response ([5]; the two dogs receiving all of their doses below the MTD): SD and PD
level at 3 h ([6]; dog, iUC tumor tissue, iv, read-out: concentration of EC0531 in iUC tissues): 3.9 ng/mL
concentration of EC0531 in iUC tissues [6]: below the level of detection
MTD [7]: 0.26 mg/kg
tolerability of treatment at the MTD ([8]; 0.26 mg/kg every two weeks): well tolerated
withdrawal from the study due to AE / toxicity ([8]; 28 dogs): No dog withdrew; also recorded: no dogs were removed
toxicity noted ([8]; 28 dogs, 311 doses): neutropenia, anorexia, or lethargy
overall tolerability ([8]; 28 dogs, total of 311 doses): generally well tolerated
infusion reaction ([8]; a single dog, transient): hypotension, compensatory tachycardia, and subsequent syncopal episode
Adverse events defined by VCOG-CTCAE ([8]; dose 0.28 mg/kg, 10 dogs, 63 doses): 1 dog with G1 vomiting^a 1 dog with G1lethargy and G3 weight loss (DLT)^a 1 dog with G4 neutropenia (DLT)^b 1 dog with G4 infusion reaction (DLT)^b
Adverse events defined by VCOG-CTCAE ([8]; dose 0.34 mg/kg, 1 dog, 5 doses): G3 anorexia and 1 dog with G3 anorexia (DLT)
Adverse events defined by VCOG-CTCAE ([8]; dose 0.18 (mg/kg), 1 dog, 6 doses): 1 dog with G1 anorexia
Adverse events defined by VCOG-CTCAE ([8]; dose 0.20 (mg/kg), 4 dogs, 14 doses): 1 dog with G2 anorexia
Adverse events defined by VCOG-CTCAE ([8]; dose 0.22 (mg/kg), 4 dogs, 10 doses): 1 dog with G1 lethargy
Adverse events defined by VCOG-CTCAE ([8]; dose 0.24 (mg/kg), 4 dogs, 16 doses): 1 dog with G2 neutropenia
Adverse events defined by VCOG-CTCAE ([8]; dose 0.26 (mg/kg), 6 dogs, 33 doses): 1 dog with G1 lethargy 1 dog with G1 vomiting and G1 neutropenia 1 dog with G2 neutropenia 1 dog with G3 neutropenia (DLT) and G2 diarrhea
Adverse events defined by VCOG-CTCAE ([8]; dose 0.30 (mg/kg), 2 dogs, 15 doses): 1 dog with G3 neutropenia (DLT)
Adverse events defined by VCOG-CTCAE ([8]; dose 0.32 (mg/kg), 1 dog, 2 doses): No adverse events observed
toxicity observed at doses higher than the MTD ([8]; doses above 0.26 mg/kg every two weeks): grade 3-4 neutropenia and gastrointestinal toxicity
thrombocytopenia ([8]; one dog, heavily pretreated with chemotherapy, chronically low platelet counts): grade 2 thrombocytopenia
outcome of weekly dose interval ([8]; pilot study in pet dogs): suspended due to neutropenia
neutrophil nadir ([8]; pilot study in pet dogs with iUC, n = 10 dogs): four to seven days after treatment
outcome of twice weekly dosing ([8]; pilot study in pet dogs, dosing not continued): dose limiting-neutropenia and anorexia
